From patent publication US20050059058A1 (CASE WESTERN RESERVE UNIVERSITY, published 2005)

T1: FtsZ protein (native, unlabelled) (Escherichia coli, UniProt P0A9A6 1-383)
T1 construct: also called native FtsZ; immobilized FtsZ
T1 sequence (looked up): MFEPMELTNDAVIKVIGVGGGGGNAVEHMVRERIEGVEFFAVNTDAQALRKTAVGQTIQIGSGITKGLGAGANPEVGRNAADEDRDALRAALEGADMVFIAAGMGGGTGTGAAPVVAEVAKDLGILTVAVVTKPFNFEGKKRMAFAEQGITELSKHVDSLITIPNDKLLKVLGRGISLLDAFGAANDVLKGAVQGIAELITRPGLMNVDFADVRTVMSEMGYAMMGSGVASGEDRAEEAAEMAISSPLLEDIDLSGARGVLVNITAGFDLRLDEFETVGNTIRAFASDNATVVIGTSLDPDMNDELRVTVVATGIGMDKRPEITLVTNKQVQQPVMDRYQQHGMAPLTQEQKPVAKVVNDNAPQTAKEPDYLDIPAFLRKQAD


Tests used:
[1] = biological target: T1, FtsZ protein (native, unlabelled); test: assay not described
[2] = biological target: T2, ZipA protein of E. coli (Escherichia coli, UniProt B1IX59 1-328); test: affinity blotting (far Western) with 32P-labelled probe
T2 construct: Complete ZipA as present in the insoluble (P200) fraction of E. coli, or overproduced from the zipA ORF in a T7 system; on blots after boiling in SDS; also called 50 Kd band
Description: To address the possibility that other proteins interact with FtsZ, the present inventors searched for proteins with affinity to FtsZ. In one approach, a FtsZ derivative (HFKT-FtsZ) was made which carries at the N-terminus a histidine-tag (the his-tag is useful for purification by metal chelate affinity chromatography such as that described in U.S. Pat. No. 5,310,663, hereby incorporated by reference) as well s a substrate site for heart muscle kinase. The purified protein was radiolabeled in vitro by incubation with kinase and [γ³²P]ATP and used as a probe on Western blots.
After the addition of one volume of electrophoresis sample buffer (125 mM Tris.Cl, 4% SDS, 20% glycerol, 1.4 M (β-mercaptoethanol, pH=6.6), samples (e.g., whole cells boiled in sample buffer, or fractionated cells) were held in a boiling water bath for 5 min., and subjected to conventional SDS-PAGE on 0.75 mm thick 10% T/2.7% C gels. Electrophoretic transfer to nitrocellulose filter (0.2μ) was performed in a Genie blotter (Idea Scientific Co.) with regular Towbin buffer (25 mM Tris.Cl, 192 mM glycine, 20% methanol, pH 8.3) at 12 V for 30 min. To monitor the transfer and to visualize the molecular weight standards, filters were treated with the reversible stain Ponceau S (0.1% in 5% acetic acid) for 1 min. Filters were next destained in 10 mM Tris-Cl, rinsed in water, and allowed to dry for 15 min in air.

Row | binding result [1] | binding result [2] | Binder
1 | binds |  | soluble fragment of ZipA (the 39-328 peptide) (other, also called portion or fragment of the ZipA protein) not shown
2 |  | no binding | HFKT-MinE fusion protein (15.9 kD, encoded by pDB311), 32P-labelled (other, Escherichia coli, 32P-phosphorylated in vitro by bovine heart muscle kinase at the kinase substrate site of the HFKT tag, range 5-88; Negative control probe; also called HKFT-MinE; radiolabelled HKFT-MinE) MGHHHHHHHHHHSSGHIEGRHMDYKDDDDKARRASVEFHMASMTGGQQMGRGSDFFLSRKKNTANIAKERLQIIVAERRRSDAEPHYLPQLRKDILEVICKYVQIDPEMVTVQLEQKDGDISILELNVTLPEAEELK
